According to US11278600B2, “Human alpha-galactosidase variants” (Codexis, Inc., priority 2014, dated 2022):
Numbering of substitutions follows the chain as printed.

B1: 619 (protein)
chain: LDNGLARTPTMGWLHWERFMCNLDCQEEPDSCISEKLFMEMAERMVTEGWKDAGYEYLCIDDCWMAPQRDSEGRLQADPQRFPHGIRQLANHVHSKGLKLGIYADVGNKTCAGFPGSFGYYDIDAQTFADWGVDLLKFDGCYCDSLENLADGYKHMSLALNRTGRPIVYSCEWPLYMWPFQKPNYTEIRQYCNHWRNFADIDDSWASIKSILDWTSRNQERIVDVAGPGGWNDPDMLVIGNFGLSWDQQVTQMALWAIMAAPLFMSNDLRAISPQAKALLQDKDVIAINQDPLGKQGYQLRKGDNFEVWERPLSGDAWAVAIINRQEIGGPRSYTIPVASLGKGVACNPACFITQLLPVKRQLGFYNWTSRLKSHINPTGTVLLQLENTHQMSLKDLL
modifications: Synthetic Polypeptide sequence of Variant No. 619 of mature Human GLA
B2: 628 (protein)
chain: B1 chain with T47N
modifications: Synthetic Polypeptide sequence of Variant No. 628 of mature Human GLA
B3: 624 (protein)
chain: B1 chain with T47N, H92Y, H390Q
modifications: Synthetic Polypeptide sequence of Variant No. 624 of mature Human GLA
B4: 620 (protein)
chain: B1 chain with H390Q
modifications: Synthetic Polypeptide sequence of Variant No. 620 of mature Human GLA
B5: 609 (protein)
chain: B1 chain with T47S, H92Y, A271H, H390M
modifications: Synthetic Polypeptide sequence of Variant No. 609 of mature Human GLA
B6: 629 (protein)
chain: B1 chain with H92Y, H390Q
modifications: Synthetic Polypeptide sequence of Variant No. 629 of mature Human GLA
B7: 622 (protein)
chain: B1 chain with T47N, M259W, H390Q, M392T
modifications: Synthetic Polypeptide sequence of Variant No. 622 of mature Human GLA
B8: 621 (protein)
chain: B1 chain with M259E, H390Q
modifications: Synthetic Polypeptide sequence of Variant No. 621 of mature Human GLA
B9: 627 (protein)
chain: B1 chain with T47N, M259W, M392T
modifications: Synthetic Polypeptide sequence of Variant No. 627 of mature Human GLA
B10: 626 (protein)
chain: B1 chain with T47S, H390Q
modifications: Synthetic Polypeptide sequence of Variant No. 626 of mature Human GLA
B11: 623 (protein)
chain: B1 chain with T47N, H92Y, A276S, H390M, M392T
modifications: Synthetic Polypeptide sequence of Variant No. 623 of mature Human GLA
B12: 625 (protein)
chain: B1 chain with H390M, M392T
modifications: Synthetic Polypeptide sequence of Variant No. 625

Test: HTP-analysis of yeast culture supernatants, no challenge (MUGal hydrolysis)
Type: biochemical
Settings: activity of the variant/activity of Rd3BB (SEQ ID NO: 13), yeast supernatant
In short: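 Activity read as 4-methylumbelliferyl α-D-galactopyranoside hydrolysis: fluorescence (355/448 nm) after sodium carbonate stop, following 30-180 min at 37° C with 2 mM MUGal stock at pH 4.6–4.8. Enzyme source is unchallenged culture supernatant of INVSc1 yeast expressing GLA variants, grown 66-84 h at 30° C.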

| Molecule | Relative Activity of GLA Variants After No Challenge (NC) |
| --- | --- |
| B1 | + (+ = 1.5 to 5 relative activity over Rd3BB (SEQ ID NO: 13)) |
| B2 | + (+ = 1.5 to 5 relative activity over Rd3BB (SEQ ID NO: 13)) |
| B3 | + (+ = 1.5 to 5 relative activity over Rd3BB (SEQ ID NO: 13)) |
| B4 | − (− = <1.5 relative activity to Rd3BB (SEQ ID NO: 13)) |
| B5 | + (+ = 1.5 to 5 relative activity over Rd3BB (SEQ ID NO: 13)) |
| B6 | + (+ = 1.5 to 5 relative activity over Rd3BB (SEQ ID NO: 13)) |
| B7 | + (+ = 1.5 to 5 relative activity over Rd3BB (SEQ ID NO: 13)) |
| B8 | + (+ = 1.5 to 5 relative activity over Rd3BB (SEQ ID NO: 13)) |
| B9 | + (+ = 1.5 to 5 relative activity over Rd3BB (SEQ ID NO: 13)) |
| B10 | + (+ = 1.5 to 5 relative activity over Rd3BB (SEQ ID NO: 13)) |
| B11 | + (+ = 1.5 to 5 relative activity over Rd3BB (SEQ ID NO: 13)) |
| B12 | + (+ = 1.5 to 5 relative activity over Rd3BB (SEQ ID NO: 13)) |

Test: HTP-analysis of supernatants pretreated with base (MUGal hydrolysis)
Type: biochemical
Settings: challenge at pH 9.7; activity of the variant/activity of Rd3BB (SEQ ID NO: 13); yeast supernatant
In short: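 Fluorescence of released 4-MU (Ex 355 nm, Em 448 nm) after carbonate quench reports MUGal hydrolysis by GLA variants secreted from INVSc1 yeast. Before the acidic (pH 4.3-4.8) 30-180 min reaction at 37° C, supernatants had been pre-incubated at pH 7.0-9.7 for 1-18 h at 37° C.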

| Molecule | Relative Activity of GLA Variants After Challenge at pH 9.7 |
| --- | --- |
| B1 | ++ (++ = >5 to 10 relative activity over Rd3BB (SEQ ID NO: 13)) |
| B2 | ++ (++ = >5 to 10 relative activity over Rd3BB (SEQ ID NO: 13)) |
| B3 | ++ (++ = >5 to 10 relative activity over Rd3BB (SEQ ID NO: 13)) |
| B4 | ++ (++ = >5 to 10 relative activity over Rd3BB (SEQ ID NO: 13)) |
| B5 | ++ (++ = >5 to 10 relative activity over Rd3BB (SEQ ID NO: 13)) |
| B6 | ++ (++ = >5 to 10 relative activity over Rd3BB (SEQ ID NO: 13)) |
| B7 | ++ (++ = >5 to 10 relative activity over Rd3BB (SEQ ID NO: 13)) |
| B8 | − (− = <1.5 relative activity to Rd3BB (SEQ ID NO: 13)) |
| B9 | ++ (++ = >5 to 10 relative activity over Rd3BB (SEQ ID NO: 13)) |
| B10 | ++ (++ = >5 to 10 relative activity over Rd3BB (SEQ ID NO: 13)) |
| B11 | ++ (++ = >5 to 10 relative activity over Rd3BB (SEQ ID NO: 13)) |
| B12 | ++ (++ = >5 to 10 relative activity over Rd3BB (SEQ ID NO: 13)) |

Test: HTP-analysis of supernatants pretreated with acid (MUGal hydrolysis)
Type: biochemical
Settings: challenge at pH 3.3; activity of the variant/activity of Rd3BB (SEQ ID NO: 13); yeast supernatant
In short: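 Fluorescence of MUGal hydrolysis (Ex. 355 nm, Em. 448 nm) is read after sodium carbonate quench. The enzyme source is INVSc1 yeast culture supernatant, first exposed to pH 3.3-4.3 McIlvaine buffer at 37° C. for 1-3 h, then reacted at pH 4.8 for 30-180 minutes.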

| Molecule | Relative Activity of GLA Variants After Challenge at pH 3.3 |
| --- | --- |
| B1 | ++ (++ = >5 to 10 relative activity over Rd3BB (SEQ ID NO: 13)) |
| B2 | + (+ = 1.5 to 5 relative activity over Rd3BB (SEQ ID NO: 13)) |
| B3 | ++ (++ = >5 to 10 relative activity over Rd3BB (SEQ ID NO: 13)) |
| B4 | + (+ = 1.5 to 5 relative activity over Rd3BB (SEQ ID NO: 13)) |
| B5 | ++ (++ = >5 to 10 relative activity over Rd3BB (SEQ ID NO: 13)) |
| B6 | ++ (++ = >5 to 10 relative activity over Rd3BB (SEQ ID NO: 13)) |
| B7 | − (− = <1.5 relative activity to Rd3BB (SEQ ID NO: 13)) |
| B8 | ++ (++ = >5 to 10 relative activity over Rd3BB (SEQ ID NO: 13)) |
| B9 | − (− = <1.5 relative activity to Rd3BB (SEQ ID NO: 13)) |
| B10 | ++ (++ = >5 to 10 relative activity over Rd3BB (SEQ ID NO: 13)) |
| B11 | +++ (+++ = >10 relative activity over Rd3BB (SEQ ID NO: 13)) |
| B12 | ++ (++ = >5 to 10 relative activity over Rd3BB (SEQ ID NO: 13)) |
